Results published in patent publication US20230048960A1 (University of Washington, published 2023).
Square brackets hold non-standard residues; d marks the D form.

target: Aβ42 (UniProt P05067 672-713); assay: cell-based or functional assay
Sequence (P05067 672-713 limits assumed): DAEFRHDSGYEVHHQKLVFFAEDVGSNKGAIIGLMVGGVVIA

Binder | % inhibition of fibril formation (ThT), AP:Aβ42 1:1 | % inhibition of fibril formation (ThT), AP:Aβ42 1:10 | % inhibition of fibril formation (ThT), AP:Aβ42 1:100
Ac-RGN[dW]N[dE]S[dK]MNEYSGW[dM]L[dM]C[dT]MGR-NH2 (SMILES CSCC[C@H](NC(=O)[C@@H](CCCCN)NC(=O)[C@H](CO)NC(=O)[C@@H](CCC(=O)O)NC(=O)[C@H](CC(N)=O)NC(=O)[C@@H](Cc1c[nH]c2ccccc12)NC(=O)[C@H](CC(N)=O)NC(=O)CNC(=O)[C@H](CCCNC(=N)N)NC(C)=O)C(=O)N[C@@H](CC(N)=O)C(=O)N[C@@H](CCC(=O)O)C(=O)N[C@@H](Cc1ccc(O)cc1)C(=O)N[C@@H](CO)C(=O)NCC(=O)N[C@@H](Cc1c[nH]c2ccccc12)C(=O)N[C@H](CCSC)C(=O)N[C@@H](CC(C)C)C(=O)N[C@H](CCSC)C(=O)N[C@@H](CS)C(=O)N[C@@H](C(=O)N[C@@H](CCSC)C(=O)NCC(=O)N[C@@H](CCCNC(=N)N)C(N)=O)[C@H](C)O) [AP500m] | 76.6% | 9% | 0%
Ac-RGE[dC]N[dL]S[dW]MNEYYGW[dT]M[dN]M[dK]MGR-NH2 (also: disulfide-linked homodimer (Cys4 to Cys4 of other copy), disulfide at 4, other end not in the chain) [AP522d] | 100% | 88.1% | 52.4%
Ac-RGE[dC]N[dL]S[dW]MNEYSGW[dT]M[dN]M[dK]MGR-NH2 (also: disulfide-linked homodimer (Cys4 to Cys4 of other copy), disulfide at 4, other end not in the chain) [AP521d] | 100% | 100% | 54.3%
Ac-RGE[dC]N[dL]S[dW]MNEYSGW[dT]M[dN]M[dK]MGR-NH2 (SMILES CSCC[C@H](NC(=O)[C@@H](CCCCN)NC(=O)[C@H](CCSC)NC(=O)[C@@H](CC(N)=O)NC(=O)[C@H](CCSC)NC(=O)[C@H](NC(=O)[C@H](Cc1c[nH]c2ccccc12)NC(=O)CNC(=O)[C@H](CO)NC(=O)[C@H](Cc1ccc(O)cc1)NC(=O)[C@H](CCC(=O)O)NC(=O)[C@H](CC(N)=O)NC(=O)[C@H](CCSC)NC(=O)[C@@H](Cc1c[nH]c2ccccc12)NC(=O)[C@H](CO)NC(=O)[C@@H](CC(C)C)NC(=O)[C@H](CC(N)=O)NC(=O)[C@@H](CS)NC(=O)[C@H](CCC(=O)O)NC(=O)CNC(=O)[C@H](CCCNC(=N)N)NC(C)=O)[C@H](C)O)C(=O)NCC(=O)N[C@@H](CCCNC(=N)N)C(N)=O) [AP521m] | 74% | 34.6% | 0%

Results, then the binder that gave them:

% inhibition of fibril formation (ThT), AP:Aβ42 1:1 | % inhibition of fibril formation (ThT), AP:Aβ42 1:10 | % inhibition of fibril formation (ThT), AP:Aβ42 1:100 | Binder
49% | 9% | 0% | Ac-RGE[dC]N[dL]S[dW]M[dN][dE][dY][dY]GW[dT]M[dN]M[dK]MGR-NH2 (SMILES CSCC[C@H](NC(=O)[C@@H](CCCCN)NC(=O)[C@H](CCSC)NC(=O)[C@@H](CC(N)=O)NC(=O)[C@H](CCSC)NC(=O)[C@H](NC(=O)[C@H](Cc1c[nH]c2ccccc12)NC(=O)CNC(=O)[C@@H](Cc1ccc(O)cc1)NC(=O)[C@@H](Cc1ccc(O)cc1)NC(=O)[C@@H](CCC(=O)O)NC(=O)[C@@H](CC(N)=O)NC(=O)[C@H](CCSC)NC(=O)[C@@H](Cc1c[nH]c2ccccc12)NC(=O)[C@H](CO)NC(=O)[C@@H](CC(C)C)NC(=O)[C@H](CC(N)=O)NC(=O)[C@@H](CS)NC(=O)[C@H](CCC(=O)O)NC(=O)CNC(=O)[C@H](CCCNC(=N)N)NC(C)=O)[C@H](C)O)C(=O)NCC(=O)N[C@@H](CCCNC(=N)N)C(N)=O) [AP523m]
45.7% | 12.6% | 0% | Ac-RGE[dC]N[dL]S[dW]MNEYYGW[dT]M[dN]M[dK]MGR-NH2 (SMILES CSCC[C@H](NC(=O)[C@@H](CCCCN)NC(=O)[C@H](CCSC)NC(=O)[C@@H](CC(N)=O)NC(=O)[C@H](CCSC)NC(=O)[C@H](NC(=O)[C@H](Cc1c[nH]c2ccccc12)NC(=O)CNC(=O)[C@H](Cc1ccc(O)cc1)NC(=O)[C@H](Cc1ccc(O)cc1)NC(=O)[C@H](CCC(=O)O)NC(=O)[C@H](CC(N)=O)NC(=O)[C@H](CCSC)NC(=O)[C@@H](Cc1c[nH]c2ccccc12)NC(=O)[C@H](CO)NC(=O)[C@@H](CC(C)C)NC(=O)[C@H](CC(N)=O)NC(=O)[C@@H](CS)NC(=O)[C@H](CCC(=O)O)NC(=O)CNC(=O)[C@H](CCCNC(=N)N)NC(C)=O)[C@H](C)O)C(=O)NCC(=O)N[C@@H](CCCNC(=N)N)C(N)=O) [AP522m]
45.8% | 7.2% | 0% | Ac-RCE[dM]N[dL]S[dW]M[dN][dE][dY][dY]GW[dT]M[dN]M[dK]MGR-NH2 (SMILES CSCC[C@H](NC(=O)[C@@H](CCCCN)NC(=O)[C@H](CCSC)NC(=O)[C@@H](CC(N)=O)NC(=O)[C@H](CCSC)NC(=O)[C@H](NC(=O)[C@H](Cc1c[nH]c2ccccc12)NC(=O)CNC(=O)[C@@H](Cc1ccc(O)cc1)NC(=O)[C@@H](Cc1ccc(O)cc1)NC(=O)[C@@H](CCC(=O)O)NC(=O)[C@@H](CC(N)=O)NC(=O)[C@H](CCSC)NC(=O)[C@@H](Cc1c[nH]c2ccccc12)NC(=O)[C@H](CO)NC(=O)[C@@H](CC(C)C)NC(=O)[C@H](CC(N)=O)NC(=O)[C@@H](CCSC)NC(=O)[C@H](CCC(=O)O)NC(=O)[C@H](CS)NC(=O)[C@H](CCCNC(=N)N)NC(C)=O)[C@H](C)O)C(=O)NCC(=O)N[C@@H](CCCNC(=N)N)C(N)=O) [AP524m]
100% | 86.1% | 43.1% | Ac-RCE[dM]N[dL]S[dW]M[dN][dE][dY][dY]GW[dT]M[dN]M[dK]MGR-NH2 (also: disulfide-linked homodimer via Cys2) [AP524d]
100% | 87.3% | 40.3% | Ac-RGE[dC]N[dL]S[dW]M[dN][dE][dY][dY]GW[dT]M[dN]M[dK]MGR-NH2 (also: disulfide-linked homodimer (Cys4 to Cys4 of other copy), disulfide at 4, other end not in the chain) [AP523d]
